Data from patent US20170224620A1 (Pfizer, published 2017).
Bridges are numbered along the chain shown (N, C = ends). Primed or numbered codes have the meaning given here. Side-chain parts run from the residue outwards. [ ]: non-standard residue; d: D form. The star is where a group is joined. Trp(5-OMe) = COc1ccc2[nH]cc(C[C@H](N)C(=O)O)c2c1; Igl = N[C@H](C(=O)O)C1Cc2ccccc2C1; Pen = CC(C)(S)[C@H](N)C(=O)O; DBCO′ = dibenzocyclooctyne; PEG4′ = not defined here; Acm = CC(=O)NC*

Tests used:
[1] = target: EGF bound EGFR (rhEGFR-Fc with recombinant human EGF pre-injected in SPR or 50 nM EGF present in ELISA) (human) (UniProt P00533); assay: P2 competition ELISA, 5% nanoparticle conjugate
[2] = target: T1, EGF bound EGFR (rhEGFR-Fc with recombinant human EGF pre-injected in SPR or 50 nM EGF present in ELISA) (human, UniProt P00533 25-645; P01133 971-1023); assay: P2 competition ELISA, 1% ligand density NP
T1 construct: Complex of m1 and m5 as target; also called EGFR in the presence of EGF; With EGF; not shown: Fc tag

[3] = target: T1, EGF bound EGFR (rhEGFR-Fc with …); assay: P2 competition ELISA: rhEGFR on the plate, 1 nM P2-Biotin dimer as tracer, 50 nM EGF; concentration on a ligand molar basis
Text: An additional assay was developed to provide an orthogonal assay to SPR during the evaluation of the P₂ peptide analogs and nanoparticle conjugates.

[4] = target: T2, Fc tagged recombinant human EGFR (rhEGFR-Fc, R&D systems, Cat#344-ER-050) (human, UniProt P00533 25-645); assay: SPR, response against peptide concentration, rhEGFR-Fc captured
T2 construct: Bought protein; also called apo-EGFR; not shown: Fc tag
Method: (§1) Surface plasmon resonance (SPR) binding studies were carried out on a Biacore T200 instrument (GE Healthcare). […] The contact time and resulting amount of rhEGFR-Fc capture was varied based on the nature of the analyte, namely whether it was a peptide or nanoparticle.
(§2) Peptide binding assays were carried out in 10 mM PBS buffer supplemented with 0.05% surfactant P20 and 5% DMSO by volume, at 25° C. Peptides were injected over the rhEGFR-Fc surface for 60 s, followed by dissociation (buffer injection) for 60 s and regeneration with a 10 s pulse of 3M MgCl₂. A fresh rhEGFR-Fc surface was generated for each concentration of each peptide tested. Peptide binding data was analyzed by fitting to a 1:1 Langmuir kinetic model to obtain the on-rate (kₐ), off-rate (kd) and/or equilibrium binding constant (KD) of the interaction.
All of the peptides were synthesized and evaluated for EGFR binding using SPR (Table 7). […] FIGS. 8A and 8B show a summary of the SPR binding data for the peptides.

[5] = target: T2, Fc tagged recombinant human EGFR …; assay: EGF competition ELISA, 10% nanoparticle conjugate
Method: An alanine scan was performed on the amino acids within the cyclic portion of the peptide structure to determine which amino acids were critical for binding. Each amino acid within the peptide was individually replaced with alanine. […] Subsequently, an alanine scan of the flanking amino acids on P₁₋₃ was performed.

[6] = target: T2, Fc tagged recombinant human EGFR …; assay: screening ELISA, peptide 100 µM against 0.7 nM biotin-EGF on coated rhEGFR
[7] = target: T2, Fc tagged recombinant human EGFR …; assay: SPR
[8] = target: T2, Fc tagged recombinant human EGFR …; assay: SPR, peptide over captured rhEGFR-Fc, without EGF
Method: as §1, §2
The two aromatic mutations P₂₋₉₈ and P₂₋₁₀₁ were combined into one peptide (P₂₋₁₀₂).

[9] = target: T1, EGF bound EGFR (rhEGFR-Fc with …); assay: SPR, peptide over captured rhEGFR-Fc after rhEGF pre-injection
Method: as §1, §2

[10] = target: T1, EGF bound EGFR (rhEGFR-Fc with …); assay: P2 competition ELISA, 5% nanoparticle conjugate
[11] = target: T1, EGF bound EGFR (rhEGFR-Fc with …); assay: P2 competition ELISA, 5% ligand density NP

Ac-DA[Pen]T[Igl]EV[Trp(5-OMe)]GRE[Pen]LQGGK(DBCO′)-NH2 (disulfide 3-12; not fully specified) [5% P2-2/55/102 nanoparticle] showed an IC50 [1] of 1.6 µg/mL and a Rel. Diff. (against P2 NP) [1] of 0.27.

In the case of Ac-DPCTWEVWGRECLQGGK-NH2 (other, disulfide 3-12; not fully specified (residue 17), also called P2 1% Ligand Density NP) [1% P2 nanoparticle], the IC50 [2] is reported as 81 µg/mL and the “IC50 (read off the curve)” value [3] is reported as about 30 nM.

Ac-SGCLDALWQCVY-NH2 (disulfide 3-10 (inferred), named singly only on the sheet) [Peptide 4]: binds [4].

Ac-SECAPLAPDWLSCILGGK(DBCO′)-NH2 (other, disulfide 3-13; also: DBCO clicked to azide PLA-PEG nanoparticle, 10 mol %) [10% P1-1 nanoparticle] was tested, and the “10% NP Relative IC50 (normalized to P1)” value [5] was about 0.3 ratio.

In the case of Ac-AECFPAAPDWLSCILGGK(DBCO′)-NH2 (other, disulfide 3-13; also: DBCO clicked to azide PLA-PEG nanoparticle, 10 mol %) [10% P1-3-1 nanoparticle], the “10% NP Relative IC50 (normalized to P1)” value [5] is reported as 1 ratio.

B1: EGFf-6 (peptide)
peptide: H-LDKYACNC(Acm)VV-NH2
SMILES: CC(=O)NCSC[C@H](NC(=O)[C@H](CC(N)=O)NC(=O)[C@H](CS)NC(=O)[C@H](C)NC(=O)[C@H](Cc1ccc(O)cc1)NC(=O)[C@H](CCCCN)NC(=O)[C@H](CC(=O)O)NC(=O)[C@@H](N)CC(C)C)C(=O)N[C@H](C(=O)N[C@H](C(N)=O)C(C)C)C(C)C
For B1, the “% inhibition of EGF” value [6] was under 20%.

In the case of Ac-DACT[Igl]EV[Trp(5-OMe)]GRECLQGGK(DBCO′)-NH2 (disulfide 3-12; not fully specified) [5% P2-2/102 nanoparticle], the IC50 [1] is reported as 3.7 µg/mL and the Rel. Diff. (against P2 NP) [1] is reported as 0.62.

Ac-CFPAAPDWLSCGGK(DBCO′)-NH2 (disulfide 1-11 (inferred)) [P1-3-7]: no binding [7].

B2: EGFf-7 (peptide)
peptide: H-C(Acm)NCVVGYIGE-NH2
SMILES: CC[C@H](C)[C@H](NC(=O)[C@H](Cc1ccc(O)cc1)NC(=O)CNC(=O)[C@@H](NC(=O)[C@@H](NC(=O)[C@H](CS)NC(=O)[C@H](CC(N)=O)NC(=O)[C@@H](N)CSCNC(C)=O)C(C)C)C(C)C)C(=O)NCC(=O)N[C@@H](CCC(=O)O)C(N)=O
In the case of B2, the “% inhibition of EGF” value [6] is reported as under 20%.

B3: 1% P2-55 nanoparticle (other)
peptide: DPXTWEVWGREXLQGGK
modifications: not fully specified; N-terminal acetyl; penicillamine at 3 and 12, disulfide; Lys17(PEG4-DBCO) clicked to azide PLA-PEG nanoparticle at 1%; C-terminal amide
notes: also called P2-55 1% Ligand Density NP
B3 was tested, and the IC50 [2] was 135 µg/mL and the “Rel IC50 (against P2 NP)” value [2] was 1.67 ratio.

Ac-MFCFRWYAGWSCVS-NH2 (disulfide 3-12 (inferred), named singly only on the sheet) [Peptide 8]: binds [4].

In the case of Ac-DACTWEVWGRECLQGGK-NH2 (other, disulfide 3-12; not fully specified (residue 17), also called P2-2 1% Ligand Density NP) [1% P2-2 nanoparticle], the IC50 [2] is reported as 17 µg/mL and the “Rel IC50 (against P2 NP)” value [2] is reported as 0.2 ratio.

Work on Ac-DPCT[Igl]EV[Trp(5-OMe)]GRECLQGGK(PEG4‑DBCO)-NH2 (disulfide 3-12, also called aromatic analog) [P2-102 (Ac-DPCT(2Ind)GEV(5MeO)WGRECLQGGK(PEG4-DBCO)-CONH2)] yielded a Kd [8] of 38 nM and a Kd [9] of 32 nM.

Binder Ac-DACT[Igl]EV[Trp(5-OMe)]GRECLQGGK(DBCO′)-NH2 (disulfide 3-12, also called DA Aro) [P2-2/102 (Ac-DACT(2Ind)GEV(5MeO)WGRECLQGGK(DBCO)-CONH2)] has a Kd [8] of 23.8 nM and a Kd [9] of 23.3 nM.

Ac-DPCT[Igl]EV[Trp(5-OMe)]GRECLQGGK([PEG4′-DBCO′])-NH2 (other, disulfide 3-12; not fully specified) [1% P2-102 nanoparticle] was tested, and the IC50 [2] was 7.6 µg/mL and the “Rel IC50 (against P2 NP)” value [2] was 0.09 ratio.

Ac-CFPAAPDWLSCGGK(DBCO′)-NH2 (disulfide 1-11 (inferred)) [P1-3-6]: no binding [7].

{DBCO′}-SECFPAAPDWLSCIL-NH2 (disulfide 3-13 (inferred), also called Alternate DBCO placement) [P1-3-14]: no binding [7].

B4: Peptide 1 (peptide)
peptide: Ac-SECFPLAPDWLSCIL-NH2
modifications: disulfide 3-13 (inferred)
notes: named singly only on the sheet; also called free literature peptide without the GGK(DBCO) tail
B4: binds [4].

B5: P2-55 (Ac-DPPen…enLQGGK(PEG4-DBCO)-CONH2) (peptide)
peptide: DPXTWEVWGREXLQGGK
modifications: N-terminal acetyl; penicillamine at 3 and 12, disulfide; Lys17(PEG4-DBCO); C-terminal amide
notes: also called Pen analog
Work on B5 yielded a Kd [8] of 74 nM and a Kd [9] of 69 nM.

Binder Ac-DP[Pen]T[Igl]EV[Trp(5-OMe)]GRE[Pen]LQGGK(DBCO′)-NH2 (disulfide 3-12, also called Aro PenPen) [P2-55/102 (Ac-DPPenT(2Ind)GEV(5MeO)WGREPenLQGGK(DBCO)-CONH2)] has a Kd [8] of 72 nM and a Kd [9] of 75.4 nM.

B6: 5% P2-2/55 nanoparticle (other)
peptide: DAXTWEVWGREXLQGGK
modifications: not fully specified; N-terminal acetyl; penicillamine at 3 and 12, disulfide; Lys17(DBCO) clicked to azide PLA-PEG nanoparticle at 5%; C-terminal amide
notes: also called P2-2/55 [DA PenPen]; NP; Ala2-Pen
B6 was tested, and the IC50 [10] was 6.3 µg/mL and the “Rel. Diff. (against P2 NP)” value [10] was 1.05 ratio.

B7: P2-2/55 (Ac-DAPen…enLQGGK(DBCO)-CONH2) (peptide)
peptide: DAXTWEVWGREXLQGGK
modifications: N-terminal acetyl; penicillamine at 3 and 12, disulfide; Lys17(DBCO); C-terminal amide
notes: also called DA PenPen
For B7, the Kd [8] was 137 nM and the Kd [9] was 97 nM.

B8: P2-2/55/102 (Ac-DAPenT(2Ind)GEV(5MeO)WGREPenLQGGK(DBCO)-CONH2) (peptide)
peptide: Ac-DA[Pen]T[Igl]EV[Trp(5-OMe)]GRE[Pen]LQGGK(DBCO′)-NH2
modifications: disulfide 3-12
notes: also called DA Aro PenPen; triple mutant
For B8, the Kd [8] was 53 nM and the Kd [9] was 33.4 nM.

B9: 5% P2 nanoparticle (other)
peptide: Ac-DPCTWEVWGRECLQGGK-NH2
modifications: disulfide 3-12; not fully specified (residue 17)
notes: also called P2 5% Ligand Density NP; parent P2 conjugated nanoparticle (5%)
For B9, the “IC50 (read off the curve)” value [3] was about 9 nM, the IC50 [11] was 4.3 µg/mL and the IC50 [10] was 6 µg/mL.

For H-YRDLKWWELR-NH2 [EGFf-10], the “% inhibition of EGF” value [6] was under 20%.

With H-RCQYRDLKWW-NH2 [EGFf-9] the “% inhibition of EGF” value [6] was 63.8%.

For H-GYIGERCQYR-NH2 [EGFf-8], the “% inhibition of EGF” value [6] was under 20%.

For H-NSDSECPLSH-NH2 [EGFf-1], the “% inhibition of EGF” value [6] was under 20%.

Work on Ac-DP[Pen]T[Igl]EV[Trp(5-OMe)]GRE[Pen]LQGGK(DBCO′)-NH2 (disulfide 3-12; not fully specified) [5% P2-55/102 nanoparticle] yielded an IC50 [1] of 2.2 µg/mL and a Rel. Diff. (against P2 NP) [1] of 0.37.
